Measurements: patent US20170128527A1

Target: Human Prolactin Receptor (PrlR) (human) (UniProt P16471)
Assay: cell-based or functional assay

Chain of UniProt P16471 (P16471 25-622 limits assumed): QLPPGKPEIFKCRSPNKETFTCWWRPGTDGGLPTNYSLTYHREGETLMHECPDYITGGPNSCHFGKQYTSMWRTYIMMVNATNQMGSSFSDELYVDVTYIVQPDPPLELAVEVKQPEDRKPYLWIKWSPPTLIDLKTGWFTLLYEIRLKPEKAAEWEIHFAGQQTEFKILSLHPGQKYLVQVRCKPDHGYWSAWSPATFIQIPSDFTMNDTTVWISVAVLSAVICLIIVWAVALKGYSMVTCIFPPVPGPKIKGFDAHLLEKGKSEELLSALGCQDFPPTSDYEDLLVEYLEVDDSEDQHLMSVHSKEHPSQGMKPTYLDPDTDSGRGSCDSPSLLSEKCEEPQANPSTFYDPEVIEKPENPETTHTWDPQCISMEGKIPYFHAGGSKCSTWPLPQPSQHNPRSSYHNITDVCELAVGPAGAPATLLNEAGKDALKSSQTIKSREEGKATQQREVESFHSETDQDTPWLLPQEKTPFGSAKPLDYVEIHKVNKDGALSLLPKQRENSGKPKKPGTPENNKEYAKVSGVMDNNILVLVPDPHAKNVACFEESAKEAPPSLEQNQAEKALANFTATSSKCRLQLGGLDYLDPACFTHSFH

Invasion (AU), U251 MG cells, CytoSelect Cell Invasion Assay, OD 560 nm; Prl 200 ng/ml + antagonist 200 ng/ml (control 0.380): 0.379 AU
Invasion (AU), U251 MG cells, CytoSelect Cell Invasion Assay, OD 560 nm; antagonist alone (control 0.380): 0.385 AU
Substance: Prl receptor antagonist Prl Δ1-9 S33A, Q73L, G129R, K190R (SEQ ID NO: 13) (from UniProt P01236 38-227) (ligand)
